# Test results as given in patent US11278600B2, “Human alpha-galactosidase variants” (Codexis, Inc., priority 2014, dated 2022).
# Legend:
# Type in all cases: biochemical
# [1] = HTP-analysis of supernatants pretreated with acid (MUGal hydrolysis); conditions: activity of the variant/activity of Rd3BB (SEQ ID NO: 13)
# Outline: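 GLA variants were secreted from INVSc1 yeast grown 66-84 h at 30° C. in SD-Ura with 2% glucose; supernatants were mixed with McIlvaine buffer pH 3.3-4.3 and held at 37° C. for 1-3 h. Residual activity on MUGal at pH 4.8 was then measured by fluorescence.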
# [2] = HTP-analysis of supernatants pretreated with base (MUGal hydrolysis); conditions: activity of the variant/activity of Rd3BB (SEQ ID NO: 13), challenge at pH 9.7
# Outline: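 GLA variants secreted from yeast INVSc1; culture supernatants pre-incubated with McIlvaine buffer pH 7.0–8.2 or 200 mM bicarbonate pH 9.1–9.7 at 37° C. for 1–18 h. Residual activity: MUGal (4 mM stock) hydrolysis at pH 4.3–4.8, 37° C., 30–180 min, carbonate quench; fluorescence Ex 355/Em 448 nm.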
# [3] = HTP-analysis of yeast culture supernatants, no challenge (MUGal hydrolysis); conditions: activity of the variant/activity of Rd3BB (SEQ ID NO: 13)
# Outline: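 Activity read as 4-methylumbelliferyl α-D-galactopyranoside hydrolysis: fluorescence (355/448 nm) after sodium carbonate stop, following 30-180 min at 37° C with 2 mM MUGal stock at pH 4.6–4.8. Enzyme source is unchallenged culture supernatant of INVSc1 yeast expressing GLA variants, grown 66-84 h at 30° C.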
Molecule,Relative Activity of GLA Variants After Challenge at pH 3.7 [1],Relative Activity of GLA Variants After Challenge at pH 9.7 [2],Relative Activity of GLA Variants After No Challenge (NC) [3],"Relative Activity of GLA Variants After Challenge at pH 3.3 ([1]; challenge at pH 3.3, yeast supernatant)",Relative Activity of GLA Variants After Challenge at pH 9.7 ([2]; yeast supernatant),Relative Activity of GLA Variants After No Challenge (NC) ([3]; yeast supernatant)
"541 (protein, Synthetic Polypeptide sequence of Variant No. 541 of mature Human GLA) LDNGLARTPTMGWLHWERFMCNLDCQEEPDSCISEKLFMEMAERMVSEGWKDAGYEYLCIDDCWMAPQRDSEGRLQADPQRFPHGIRQLANHVHSKGLKLGIYADVGNKTCAGFPGSFGYYDIDAQTFADWGVDLLKFDGCYCDSLENLADGYKHMSLALNRTGRSIVYSCEWPLYMWPFQKPNYTEIRQYCNHWRNFADIDDSWASIKSILDWTSRNQERIVDVAGPGGWNDPDMLVIGNFGLSWDQQVTQMALWAIMAAPLFMSNDLRHISPQAKALLQAKDVIAINQDPLGKQGYQLRKGDNFEVWERPLSGDAWAVAIINRQEIGGPRSYTIPVASLGKGVACNPACFITQLLPVKRQLGFYNWTSRLKSHINPTGTVLLQLENTMQMSLKDLL",+ (+ = 1.5 to 5 relative activity over Rd3BB (SEQ ID NO: 13)),++ (++ = >5 to 10 relative activity over Rd3BB (SEQ ID NO: 13)),+ (+ = 1.5 to 5 relative activity over Rd3BB (SEQ ID NO: 13)),,,
"544 (protein, Synthetic Polypeptide sequence of Variant No. 544 of mature Human GLA) LDNGLARTPTMGWLHWERFMCNLDCQEEPDSCISEKLFMEMAERMVSEGWKDAGYEYLCIDDCWMAPQRDSEGRLQADPQRFPHGIRQLANHVHSKGLKLGIYADVGNKTCAGFPGSFGYYDIDAQTFADWGVDLLKFDGCYCDSLENLADGYKHMSLALNRTGRSIVYSCEWPLYMWPFQKPNYTEIRQYCNHWRNFADIDDSWASIKSILDWTSRNQERIVDVAGPGGWNDPDMLVIGNFGLSWDQQVTQMALWAIMAAPLFMSNDLRHISPQAKALLQVKDVIAINQDPLGKQGYQLRKGDNFEVWERPLSGDAWAVAIINRQEIGGPRSYTIPVASLGKGVACNPACFITQLLPVKRQLGFYNWTSRLKSHINPTGTVLLQLENTMQMSLKDLL",+ (+ = 1.5 to 5 relative activity over Rd3BB (SEQ ID NO: 13)),+ (+ = 1.5 to 5 relative activity over Rd3BB (SEQ ID NO: 13)),+ (+ = 1.5 to 5 relative activity over Rd3BB (SEQ ID NO: 13)),,,
"542 (protein, Synthetic Polypeptide sequence of Variant No. 542 of mature Human GLA) LDNGLARTPTMGWLHWERFMCNLDCQEEPDSCISEKLFMEMAERMVSEGWKDAGYEYLCIDDCWMAPQRDSEGRLQADPQRFPHGIRQLANHVHSKGLKLGIYADVGNKTCAGFPGSFGYYDIDAQTFADWGVDLLKFDGCYCDSLENLADGYKHMSLALNRTGRSIVYSCEWPLYMWPFQKPNYTEIRQYCNHWRNFADIDDSWASIKSILDWTSRNQERIVDVAGPGGWNDPDMLVIGNFGLSWDQQVTQMALWAIMAAPLFMSNDLRHISPQAKALLQGKDVIAINQDPLGKQGYQLRKGDNFEVWERPLSGDAWAVAIINRQEIGGPRSYTIPVASLGKGVACNPACFITQLLPVKRQLGFYNWTSRLKSHINPTGTVLLQLENTMQMSLKDLL",+ (+ = 1.5 to 5 relative activity over Rd3BB (SEQ ID NO: 13)),++ (++ = >5 to 10 relative activity over Rd3BB (SEQ ID NO: 13)),+ (+ = 1.5 to 5 relative activity over Rd3BB (SEQ ID NO: 13)),,,
"545 (protein, Synthetic Polypeptide sequence of Variant No. 545 of mature Human GLA) LDNGLARTPTMGWLHWERFMCNLDCQEEPDSCISEKLFMEMAERMVSEGWKDAGYEYLCIDDCWMAPQRDSEGRLQADPQRFPHGIRQLANHVHSKGLKLGIYADVGNKTCAGFPGSFGYYDIDAQTFADWGVDLLKFDGCYCDSLENLADGYKHMSLALNRTGRSIVYSCEWPLYMWPFQKPNYTEIRQYCNHWRNFADIDDSWASIKSILDWTSRNQERIVDVAGPGGWNDPDMLVIGNFGLSWDQQVTQMALWAIMAAPLFMSNDLRHISPQAKALLQDKDVIAINQDPLGAQGYQLRKGDNFEVWERPLSGDAWAVAIINRQEIGGPRSYTIPVASLGKGVACNPACFITQLLPVKRQLGFYNWTSRLKSHINPTGTVLLQLENTMQMSLKDLL",+ (+ = 1.5 to 5 relative activity over Rd3BB (SEQ ID NO: 13)),++ (++ = >5 to 10 relative activity over Rd3BB (SEQ ID NO: 13)),+ (+ = 1.5 to 5 relative activity over Rd3BB (SEQ ID NO: 13)),,,
"633 (protein, Synthetic Polypeptide sequence of Variant No. 633 of mature Human GLA) LDNGLARTPTMGWLHWERFMCNLDCQEEPDSCISEKLFMEMADRMVSEGWKDAGYEYLCIDDCWMAPQRDSEGRLQADPQRFPHGIRQLANSVHSKGLKLGIYADVGNKTCAGFPGSFGYYDIDAQTFADWGVDLLKFDGCYCDSLENLADGYKHMSLALNRTGRPIVYSCEWPLYMWPFQKPNYTEIRQYCNHWRNFADIDDSWASIKSILDWTSRNQERIVDVAGPGGWNDPDMLVIGNFGLSWDQQVTQMALWAIMAAPLFMSNDLRHISPQAKALLQDKDVIAINQDPLGKQGYQLRKGDNFEVWERPLSGDAWAVAIINRQEIGGPRSYTIPVASLGKGVACNPACFITQLLPVKRQLGFYNWTSRLKSHINPTGTVLLQLENTMQMSLKDLL",,,,++ (++ = >5 to 10 relative activity over Rd3BB (SEQ ID NO: 13)),++ (++ = >5 to 10 relative activity over Rd3BB (SEQ ID NO: 13)),+ (+ = 1.5 to 5 relative activity over Rd3BB (SEQ ID NO: 13))
"546 (protein, Synthetic Polypeptide sequence of Variant No. 546 of mature Human GLA) LDNGLARTPTMGWLHWERFMCNLDCQEEPDSCISEKLFMEMAERMVSEGWKDAGYEYLCIDDCWMAPQRDSEGRLQADPQRFPHGIRQLANHVHSKGLKLGIYADVGNKTCAGFPGSFGYYDIDAQTFADWGVDLLKFDGCYCDSLENLADGYKHMSLALNRTGRSIVYSCEWPLYMWPFQKPNYTEIRQYCNHWRNFADIDDSWASIKSILDWTSRNQERIVDVAGPGGWNDPDMLVIGNFGLSWDQQVTQMALWAIMAAPLFMSNDLRHISPQAKALLQDKDVIAINQDPLGEQGYQLRKGDNFEVWERPLSGDAWAVAIINRQEIGGPRSYTIPVASLGKGVACNPACFITQLLPVKRQLGFYNWTSRLKSHINPTGTVLLQLENTMQMSLKDLL",+++ (+++ = >10 relative activity over Rd3BB (SEQ ID NO: 13)),++ (++ = >5 to 10 relative activity over Rd3BB (SEQ ID NO: 13)),+ (+ = 1.5 to 5 relative activity over Rd3BB (SEQ ID NO: 13)),,,
"516 (protein, Synthetic Polypeptide sequence of Variant No. 516 of mature Human GLA) LENGLARTPTMGWLHWERFMCNLDCQEEPDSCISEKLFMEMAERMVSEGWKDAGYEYLCIDDCWMAPQRDSEGRLQADPQRFPHGIRQLANHVHSKGLKLGIYADVGNKTCAGFPGSFGYYDIDAQTFADWGVDLLKFDGCYCDSLENLADGYKHMSLALNRTGRSIVYSCEWPLYMWPFQKPNYTEIRQYCNHWRNFADIDDSWASIKSILDWTSRNQERIVDVAGPGGWNDPDMLVIGNFGLSWDQQVTQMALWAIMAAPLFMSNDLRHISPQAKALLQDKDVIAINQDPLGKQGYQLRKGDNFEVWERPLSGDAWAVAIINRGEIGGPRSYTIPVASLGKGVACNPACFITQLLPVKRQLGFYNWTSRLKSHINPTGTVLLQLENTMQMSLKDLL",+++ (+++ = >10 relative activity over Rd3BB (SEQ ID NO: 13)),+ (+ = 1.5 to 5 relative activity over Rd3BB (SEQ ID NO: 13)),+ (+ = 1.5 to 5 relative activity over Rd3BB (SEQ ID NO: 13)),,,
"543 (protein, Synthetic Polypeptide sequence of Variant No. 543 of mature Human GLA) LDNGLARTPTMGWLHWERFMCNLDCQEEPDSCISEKLFMEMAERMVSEGWKDAGYEYLCIDDCWMAPQRDSEGRLQADPQRFPHGIRQLANHVHSKGLKLGIYADVGNKTCAGFPGSFGYYDIDAQTFADWGVDLLKFDGCYCDSLENLADGYKHMSLALNRTGRSIVYSCEWPLYMWPFQKPNYTEIRQYCNHWRNFADIDDSWASIKSILDWTSRNQERIVDVAGPGGWNDPDMLVIGNFGLSWDQQVTQMALWAIMAAPLFMSNDLRHISPQAKALLQMKDVIAINQDPLGKQGYQLRKGDNFEVWERPLSGDAWAVAIINRQEIGGPRSYTIPVASLGKGVACNPACFITQLLPVKRQLGFYNWTSRLKSHINPTGTVLLQLENTMQMSLKDLL",+ (+ = 1.5 to 5 relative activity over Rd3BB (SEQ ID NO: 13)),+ (+ = 1.5 to 5 relative activity over Rd3BB (SEQ ID NO: 13)),+ (+ = 1.5 to 5 relative activity over Rd3BB (SEQ ID NO: 13)),,,
